Experimental data reported in paper PMC2789841.

What was measured:
Experiment in all cases: SPR
[1] = molecular target: Recombinant human CypD protein (cyclophilin D) (human) (UniProt P30405)
oligomeric Aβ40 = molecular target: oligomeric Aβ40
oligomeric Aβ42 = molecular target: oligomeric Aβ42

| Kd [1] | Kd (oligomeric Aβ40) | Kd (oligomeric Aβ42) | Substance |
| --- | --- | --- | --- |
| 1700 nM | – | – | Aβ40 (Aβ peptide residues 1-40) |
| 164 nM | – | – | Aβ42 (Aβ peptide residues 1-42) |
| – | 227 nM | 4 nM | Recombinant human CypD protein (cyclophilin D) (from UniProt P30405 30-207) (natural protein) |
